This note sets out measurements from PMC8146883, “A New Thermophilic Ene-Reductase from the Filamentous Anoxygenic Phototrophic Bacterium Chloroflexus aggregans” (Microorganisms, 2021).

A word on the stoichiometry N: it is the number of molecules, sites or subunits per partner or assembly.

This assay deals with CaOYE, ene-reductase (Old Yellow Enzyme homologue) from Chloroflexus aggregans (Chloroflexus aggregans DSM 9485) (UniProt B8G5D6). In words: crystal structure; N-terminally His6-tagged CaOYE at 20 mg/mL in 50 mM Tris-HCl pH 8.0; crystals from 100 mM HEPES pH 7.0, 1.1 M sodium malonate, 0.5% Jeffamine ED-2003, 293 K; space group C2221, 4 molecules per asymmetric unit; dimer seen in the crystal packing.

Chain of CaOYE, ene-reductase (Old Yellow Enzyme homologue) from Chloroflexus aggregans (B8G5D6 whole entry): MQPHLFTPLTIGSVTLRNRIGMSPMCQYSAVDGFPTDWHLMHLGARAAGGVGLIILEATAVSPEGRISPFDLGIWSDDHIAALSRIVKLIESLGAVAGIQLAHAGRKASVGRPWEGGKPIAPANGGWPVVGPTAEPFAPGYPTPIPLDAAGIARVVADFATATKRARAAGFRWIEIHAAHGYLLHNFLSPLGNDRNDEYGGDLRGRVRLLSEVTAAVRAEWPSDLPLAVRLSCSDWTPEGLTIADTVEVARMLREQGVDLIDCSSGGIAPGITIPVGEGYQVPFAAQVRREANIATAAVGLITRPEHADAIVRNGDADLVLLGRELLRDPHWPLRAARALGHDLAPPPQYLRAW

Regarding “CaOYE, ene-reductase (Old Yellow Enzyme homologue) from Chloroflexus aggregans (from UniProt B8G5D6 1-354)”, the stoichiometry N is 2.
